Laboratory results taken from paper PMC5741731.

What was measured:
[1] = target: human mesothelin-Fc fusion protein (human)
[2] = target: human mesothelin-Fc fusion protein (human); test: SPR; Biacore T200; human mesothelin-Fc captured via amine-coupled anti-human IgG (Fc) antibody on a CM5 chip; CA-125-His-Avi and anti-mesothelin Fab injected consecutively and conversely (dual injects, 120 s contact each); PBS with 0.05% Tween 20, dilution with 1 mg/ml BSA; 25 °C

Chain of human mesothelin-Fc fusion protein (human) (Q13421 other isoform, or with tags, fused parts or gaps): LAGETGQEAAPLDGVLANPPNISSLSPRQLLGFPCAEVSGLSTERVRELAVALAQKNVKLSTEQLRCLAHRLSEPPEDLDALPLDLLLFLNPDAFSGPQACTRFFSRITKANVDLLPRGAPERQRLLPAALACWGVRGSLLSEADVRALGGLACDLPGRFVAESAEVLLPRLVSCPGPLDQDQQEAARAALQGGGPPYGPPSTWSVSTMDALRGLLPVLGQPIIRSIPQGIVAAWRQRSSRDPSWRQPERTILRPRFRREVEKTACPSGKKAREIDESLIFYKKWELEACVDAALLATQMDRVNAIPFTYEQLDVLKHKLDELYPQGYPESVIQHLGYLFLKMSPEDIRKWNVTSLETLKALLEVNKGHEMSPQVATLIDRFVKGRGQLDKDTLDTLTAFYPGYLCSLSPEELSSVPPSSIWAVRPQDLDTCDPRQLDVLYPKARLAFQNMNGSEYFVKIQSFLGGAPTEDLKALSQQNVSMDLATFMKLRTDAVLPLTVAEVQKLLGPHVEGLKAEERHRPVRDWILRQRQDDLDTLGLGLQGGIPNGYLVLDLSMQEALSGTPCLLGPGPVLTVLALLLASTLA

“CA-125-HisAvi (recombinant CA-125, extracellular portion) (domain or fragment)” was tested, and the the same heterotypic cell adhesion after pre-incubation of the NCI-H358-MSLN clones with RG7787 Fab: no NCI-H358 cells recovered for clones 4D8, 4H3 and 1G2; clone 2C5 only partly blocked [1] was 10% and the occupancy of mesothelin at maximal saturation [2] was 70%.
